Test results from IntAct's records for PubMed 18583988.

Biological target: csk21_human CSNK2A1 (UniProt P68400)
Chain of UniProt P68400 (P68400 whole entry, looked up): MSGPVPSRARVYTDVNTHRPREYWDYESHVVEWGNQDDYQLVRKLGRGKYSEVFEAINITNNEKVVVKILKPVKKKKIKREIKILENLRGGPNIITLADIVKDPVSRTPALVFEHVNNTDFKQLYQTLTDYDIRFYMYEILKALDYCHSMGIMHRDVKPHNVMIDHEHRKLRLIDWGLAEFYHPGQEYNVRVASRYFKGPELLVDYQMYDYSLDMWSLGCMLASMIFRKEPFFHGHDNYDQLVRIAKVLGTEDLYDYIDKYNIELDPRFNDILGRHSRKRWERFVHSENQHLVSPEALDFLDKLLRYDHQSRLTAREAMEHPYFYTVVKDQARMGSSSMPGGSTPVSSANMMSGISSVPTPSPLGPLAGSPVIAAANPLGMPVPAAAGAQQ

| effect of a mutation on the interaction | Substance |
| --- | --- |
| disrupting interaction | Mediator of DNA damage checkpoint protein 1 (Homo sapiens), Q14676 T301A |
| disrupting interaction | Mediator of DNA damage checkpoint protein 1 (Homo sapiens), Q14676 T331A |
